Consider seven molecules from paper PMC9962925, “PKD autoinhibition in trans regulates activation loop autophosphorylation in cis” (Proceedings of the National Academy of Sciences of the …, 2023).

For series [1], the target named is PKD1 kinase domain construct, unphosphorylated (PKD1^KD 0P), wild type (human) (UniProt Q15139). In words: SEC; analytical size exclusion chromatography of purified proteins (Fig. 1C); elution volumes calibrated to monomer and dimer masses by SEC-MALS. In general terms: SEC sorts molecules by how far they enter the pores of the column.
Series [2] has the same target. In words: SEC-MALS; 60 uL of purified protein at 2 mg/mL on an S200 10/300 column, room temperature, 20 mM HEPES pH 7.4, 150 mM KCl, 1 mM EDTA, 1 mM TCEP, 1% glycerol (Fig. 1H).
For series [3], the target named is PKD1 ubiquitin-like dimerization domain (PKD1^ULD) (human). Description: SEC; analytical size exclusion chromatography of purified proteins (Fig. 1C); elution volumes calibrated to monomer and dimer masses by SEC-MALS.
In series [4] the target is ULD-PKD1^KD chimera with (Gly)5 linker (human).
Series [5] concerns the target ULD-PKD1^KD chimera with (Gly)10 linker (human).
Series [6] concerns the molecule itself. In words: SEC; analytical size exclusion chromatography of purified proteins (Fig. 1C); elution volumes calibrated to monomer and dimer masses by SEC-MALS.

Substitutions are numbered along the chain they refer to. Names may count otherwise.

Consider “PKD1 kinase domain construct, unphosphorylated (PKD1^KD 0P), wild type (from UniProt Q15139 570-890) (domain or fragment)”, for which the stoichiometry N in series [1] and in series [2] was 2 each time.

Turning to “PKD1 ubiquitin-like dimerization domain (PKD1^ULD) (domain or fragment)”, in series [3], the stoichiometry N (usually the number of molecules, sites or subunits per partner or assembly) was determined as 2.

In series [4], ULD-PKD1^KD chimera with (Gly)5 linker showed an initial catalytic rate of Syntide-2 phosphorylation at 50 nM, against PKD1^KD alone of 5 fold.

In the case of ULD-PKD1^KD chimera with (Gly)10 linker, the initial catalytic rate of Syntide-2 phosphorylation at 50 nM, against PKD1^KD alone in series [5] worked out at 5 fold.

B1: PKD1^KD S738E (domain or fragment, human, UniProt Q15139 570-890, looked up)
chain: QIQENVDISTVYQIFPDEVLGSGQFGIVYGGKHRKTGRDVAIKIIDKLRFPTKQESQLRNEVAILQNLHHPGVVNLECMFETPERVFVVMEKLHGDMLEMILSSEKGRLPEHITKFLITQILVALRHLHFKNIVHCDLKPENVLLASADPFPQVKLCDFGFARIIGEKEFRRSVVGTPAYLAPEVLRNKGYNRSLDMWSVGVIIYVSLSGTFPFNEDEDIHDQIQNAAFMYPPNPWKEISHEAIDLINNLLQVKMRKRYSVDKTLSHPWLQDYQTWLDLRELECKIGERYITHESDDLRWEKYAGEQGLQYPTHLINPSAS
notes: Protein kinase D1 (PKD1), human, kinase domain construct, residues 570 to 890; also called single glutamate substitution of S738; source: recombinant, purified to homogeneity
Turning to B1, in series [6], the binding result is reported as “binds”.

B2: PKD1^KD 2A (S738A/S742A) (domain or fragment, human, UniProt Q15139 570-890, looked up)
chain: B1 chain with E169A, S173A
notes: the sites are S738 and S742; source: recombinant, purified to homogeneity
For B2, the “stoichiometry N” value in series [6] stood at 2.

B3: PKD1^KD S742E (domain or fragment, human, UniProt Q15139 570-890, looked up)
chain: B1 chain with E169S, S173E
notes: Protein kinase D1 (PKD1), human, kinase domain construct, residues 570 to 890; also called single glutamate substitution of S742; source: recombinant, purified to homogeneity
For the molecule B3, in series [6], the binding result is “binds”.
